# Laboratory results published in patent US20150344570A1 (published 2015).
# Residue numbers refer to the chain shown, from its start. Numbers in names are those of the source.
# T1: FcgRIIb (human, UniProt P31994 43-217)
# T1 construct: extracellular domain; Soluble extracellular domain with C-terminal His tag, expressed in FreeStyle293 cells; also called FcγRIIb; 2b; not shown: His tag at the C terminus
# T1 sequence (looked up): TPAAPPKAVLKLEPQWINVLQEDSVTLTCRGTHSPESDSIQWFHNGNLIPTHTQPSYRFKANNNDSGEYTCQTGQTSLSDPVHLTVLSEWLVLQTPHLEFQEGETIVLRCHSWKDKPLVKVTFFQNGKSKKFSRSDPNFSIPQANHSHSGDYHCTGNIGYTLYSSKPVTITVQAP
# T2: FcgRIIaR (human, UniProt P12318 34-217)
# T2 construct: extracellular domain; Soluble extracellular domain with C-terminal His tag, expressed in FreeStyle293 cells; also called FcγRIIa R; FcgRIIa type R; not shown: His tag at the C terminus
# T2 sequence (looked up): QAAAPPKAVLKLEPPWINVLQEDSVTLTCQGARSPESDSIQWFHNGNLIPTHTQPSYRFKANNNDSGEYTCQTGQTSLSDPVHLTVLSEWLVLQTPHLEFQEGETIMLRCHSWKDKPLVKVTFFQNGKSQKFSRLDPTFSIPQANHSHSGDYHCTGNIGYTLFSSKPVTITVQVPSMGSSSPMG
# B1: GpH7-TA4/GpH7-B3-15-02A/GpL16-k0 (antibody, human IgG1, kappa)
# heavy 1: QVQLVQSGAEVKKPGASVTVSCKASGYTFTDYEMHWIRQPPGEGLEWIGAIDPKTGDTAYSESFQDRVTLTADKSTSTAYMELSSLTSEDTAVYYCTRFYSYTYWGQGTLVTVSSASTKGPSVFPLAPSSKSTSGGTAALGCLVKDYFPEPVTVSWNSGALTSGVHTFPAVLQSSGLYSLSSVVTVPSSSLGTQTYICNVNHKPSNTKVDKKVEPKSCDKTHTCPPCPAPEYLWGPSVFLFPPKPKDTLMISRTPEVTCVVVDVSHEDPEVKFNWYVDGVEVHNAKTKPREEQYNSTYRVVSVLTVLHQDWLNGKEYKCKVSNKALPAPIEKTISKAKGQPREPQVYTLPPSRKELTKNQVSLTCLVKGFYPSDIAVEWESNGQPENNYKTTPPVLDSDGSFFLYSKLTVDKSRWQQGNVFSCSVMHEALHNRYTQKSLSLSP
# heavy 2: not shown
# light: DIVMTQSPLSLPVTPGEPASISCQASESLVHSNRNTYLHWYLQKPGQSPQLLIYKVSNRFSGVPDRFSGSGSGTDFTLKISRVEAEDVGVYYCSQNTHVPPTFGQGTKVEIERTVAAPSVFIFPPSDEQLKSGTASVVCLLNNFYPREAKVQWKVDNALQSGNSQESVTEQDSKDSTYSLSSTLTLSKADYEKHKVYACEVTHQGLSSPVTKSFNRGEC
# notes: H1 L234Y and G236W; H2 S298A
# B2: GpH7-TA6/GpH7-B3-01-15Y/GpL16-k0 (antibody, human IgG1, kappa)
# heavy 1: B1 heavy 1 with Y232L, S296A
# heavy 2: not shown
# light: B1 light
# notes: H1 G236W and S298A; H2 L234Y
# B3: GpH7-TA5/GpH7-B3-03-20W/GpL16-k0 (antibody, human IgG1, kappa)
# heavy 1: B1 heavy 1 with W234G, S296A
# heavy 2: not shown
# light: B1 light
# notes: H1 L234Y and S298A; H2 G236W
# B4: GpH7-A5/GpH7-B3/GpL16-k0 (antibody, human IgG1, kappa)
# heavy 1: not shown
# heavy 2: not shown
# light: B1 light
# notes: also called HeCon Ab; control heterodimerized antibody
# B5: GpH7-A5/GpH7-B3/GpL16-k0 (antibody, human IgG1, kappa)
# heavy 1: not shown
# heavy 2: not shown
# light: B1 light
# notes: as for B4
# B6: GpH7-TA7/GpH7-TA45/GpL16-k0 (antibody, human IgG1, kappa)
# heavy 1: B1 heavy 1 with S296A
# heavy 2: B1 heavy 1 with S296A, K354D, R433H, K437E
# light: B1 light
# notes: Anti-glypican-3 IgG1; The two chains differ only in D356K/H435R and K439E
# B7: GpH7-TA7/GpH7-B3/GpL16-k0 (antibody, human IgG1, kappa)
# heavy 1: B1 heavy 1 with S296A
# heavy 2: not shown
# light: B1 light
# notes: Anti-glypican-3 IgG1 heterodimer; L234Y/G236W/S298A in H1 only
# B8: GpH7-A44/GpH7-B80/GpL16-k0 (antibody, human IgG1, kappa)
# heavy 1: B1 heavy 1 with Y232L, W234G, I330E
# heavy 2: not shown
# light: B1 light
# B9: GpH7-TA7/GpH7-B12/GpL16-k0 (antibody, human IgG1, kappa)
# heavy 1: B1 heavy 1 with S296A
# heavy 2: not shown
# light: B1 light
# notes: Anti-glypican-3 IgG1 heterodimer; L234Y/G236W/S298A in H1, P329R in H2
# B10: GpH7-A5/GpH7-TA45/GpL16-k0 (antibody, human IgG1, kappa)
# heavy 1: not shown
# heavy 2: B1 heavy 1 with S296A, K354D, R433H, K437E
# light: B1 light
# notes: Anti-glypican-3 IgG1 heterodimer; L234Y/G236W/S298A in H2 only
# B11: GpH7-A5/GpH7-B80/GpL16-k0 (antibody, human IgG1, kappa)
# heavy 1: not shown
# heavy 2: not shown
# light: B1 light
# notes: Heterodimerized antibody with I332E in one H chain only
# B12: GpH7-A44/GpH7-B3/GpL16-k0 (antibody, human IgG1, kappa)
# heavy 1: B1 heavy 1 with Y232L, W234G, I330E
# heavy 2: not shown
# light: B1 light
# notes: as for B11
# B13: GpH7-TA8/GpH7-B3/GpL16-k0 (antibody, human IgG1, kappa)
# heavy 1: B1 heavy 1 with S296A, P327R
# heavy 2: not shown
# light: B1 light
# notes: Anti-glypican-3 IgG1 heterodimer; L234Y/G236W/S298A/P329R all in H1
# B14: IL6R-BP257/IL6R-L (antibody, human IgG1, kappa)
# heavy: QVQLQESGPGLVKPSETLSLTCAVSGHSISHDHAWSWVRQPPGEGLEWIGFISYSGITNYNPSLQGRVTISRDNSKNTLYLQMNSLRAEDTAVYYCARSLARTTAMDYWGEGTLVTVSSASTKGPSVFPLAPSSKSTSGGTAALGCLVKDYFPEPVTVSWNSGALTSGVHTFPAVLQSSGLYSLSSVVTVPSSSLGTQTYICNVNHKPSNTKVDKKVEPKSCDKTHTCPPCPAPDLLGDDEVFLFPPKPKDTLMISRTPEVTCVVVDVSDEDGEVKFNWYVDGVEVHNAKTKPREEQYNSTYRVVSVLTVLHQDWLNGKEYKCKVSNKALPRPIEKTISKAKGQPREPQVYTLPPSRDELTKNQVSLTCLVKGFYPSDIAVEWESNGQPENNYKTTPPVLDSDGSFFLYSKLTVDKSRWQQGNVFSCSVMHEALHNHYTQESLSLSP
# light: not shown
# notes: Homodimerized antibody, S239E in both H chains
# Assays:
# [1] = molecular target: FcγRIIIa extracellular domain with C-terminal His tag (human, UniProt P08637 17-208); assay: SPR (Biacore), relative binding activity; GpH7-A5/GpH7-B3/GpL16-k0 = 100
# Target sequence in this assay (P08637 17-208): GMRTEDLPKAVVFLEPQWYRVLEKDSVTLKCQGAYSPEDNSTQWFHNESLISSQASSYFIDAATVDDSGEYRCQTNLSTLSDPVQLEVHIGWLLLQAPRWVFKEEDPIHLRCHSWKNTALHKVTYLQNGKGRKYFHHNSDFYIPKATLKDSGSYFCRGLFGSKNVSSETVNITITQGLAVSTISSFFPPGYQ
# [2] = molecular target: T3, FcγRIIIa extracellular domain with C-terminal His tag (human, UniProt P08637 17-208); assay: SPR (Biacore), ratio of KD for FcγRIIIa against GpH7-A5/GpH7-B3/GpL16-k0
# T3 construct: extracellular domain; also called FcgRIIIa; 3a; not shown: His tag attached to the C terminus
# Source text: Then, the present inventors introduced I332E into only one H chain, and assessed whether the Tm is elevated as compared to when I332E is introduced into both H chains. Expression vectors inserted with GpH7-A44 (SEQ ID NO: 49) and GpH7-B80 (SEQ ID NO: 50) resulting from the introduction of I332E into GpH7-A5 and GpH7-B3, respectively, were constructed. They were combined with GpH7-B3, GpH7-A5, and GpL16-k0 to express and prepare the following antibodies according to the method described in Reference Example 1: the heterodimerized antibodies GpH7-A5/GpH7-B80/GpL16-k0 and GpH7-A44/GpH7-B3/GpL16-k0 in which only one of the H chains was introduced with I332E, and the homodimerized antibody GpH7-A44/GpH7-B80/GpL16-k0 in which both of the H chains were introduced with I332E. […] Each antibody was assessed for the FcγRIIIa-binding activity according to the method described in Reference Example 2. In addition, the antibodies were compared for the Tm of CH2 domain by thermal shift assay according to the method described in Reference Example 5 (Tables 28 and 29).
# (§1) Analysis of interaction between objective antibody and the FcγR was carried out using Biacore T100 (GE Healthcare). HBS-EP+ (GE Healthcare) was used as the running buffer, and the measurement temperature was set to 25° C. Chips produced by immobilizing the antigen peptide by the amine coupling method to a Series S Sencor Chip CM5 (GE Healthcare), or alternatively, chips produced by allowing preliminarily biotinylated antigen peptides to interact with and immobilize onto a Series S Sensor Chip SA (certified) (GE Healthcare) were used. Antibodies of interest were captured onto an antigen peptide-immobilized chip, and allowed to interact to each FcγR diluted with running buffer. To regenerate and repeatedly use the chip, the antibodies captured on the chip were washed off by reacting 10 mM glycine-HCl, pH 1.5.
# The FcγR-binding activity of each antibody was assessed primarily using as an indicator the FcγR-binding activity and dissociation constant for FcγR.
# T3 sequence (P08637 17-208): as above
# FcγRIIIa [3] = molecular target: T4, FcγRIIIa (human, UniProt P08637 17-208); assay: ratio of SPR KDs: KD of GpH7-G1d/GpL16-k0 divided by KD of this antibody
# T4 construct: extracellular domain; also called FcgRIIIa; CD16A; not shown: His tag attached to the C terminus
# T4 sequence (P08637 17-208): as above
# Protocol: (§2) The prepared antibodies were compared for the FcγRIIIa-binding activity using, as an indicator, KD for FcγRIIIa that was determined according to the method described in Reference Example 2.
# as §1
# (§3) Specifically, to calculate association rate constant ka (L/mol/s) and dissociation rate constant kd (1/s), sensorgrams obtained by measurement were processed for global fitting by Biacore Evaluation Software using 1:1 Langmuir binding model and dissociation constant KD (mol/1) was calculated from the resulting values.
# FcγRIIIa [4] = molecular target: T4, FcγRIIIa; assay: ratio of SPR KDs: KD of GpH7-A5/GpH7-B3/GpL16-k0 divided by KD of this antibody
# Protocol: as §2, §1, §3
# FcγRIIIa [5] = molecular target: T4, FcγRIIIa; assay: SPR (Biacore), antibody captured on antigen-peptide chip, FcγR as analyte; relative binding amount
# Protocol: Specifically, GpH7-TA7 and GpH7-TA45 (SEQ ID NO: 32) resulting from the introduction of L234Y, G236W, and S298A into GpH7-A5 and GpH7-B3, respectively, were prepared according to the method described in Reference Example 1. […] These antibodies were compared for the FcγRIIIa binding according to the method described in Reference Example 2 (Table 10).
# as §1
# FcγRIIIa [6] = molecular target: T4, FcγRIIIa; assay: as above; remark: listed apart in the source
# Protocol: GpH7-TA8 (SEQ ID NO: 33) and GpH7-B12 (SEQ ID NO: 12) resulting from the introduction of P329R into GpH7-TA7 and GpH7-B3, respectively, were prepared according to the method described in Reference Example 1.
# as §1
# FcgRIIb [7] = molecular target: T1, FcgRIIb; assay: SPR (Biacore); KD of the variant for FcgRIIaR divided by its KD for FcgRIIb
# FcgRIIb [8] = molecular target: T1, FcgRIIb; assay: SPR (Biacore), antibody captured on chip, FcgR extracellular domain as analyte
# FcgRIIaR = molecular target: T2, FcgRIIaR; assay: as above
binder,measurement,setting,value
B1,FcγRIIIa BINDING ACTIVITY,[1],151%
B2,FcγRIIIa BINDING ACTIVITY,[1],103%
B3,FcγRIIIa BINDING ACTIVITY,[1],97%
B4,KD ratio,[2],1 fold (KD of GpH7-A5/GpH7-B3/GpL16-k0 divided by KD of the antibody)
B5,KD ratio 1,FcγRIIIa [3],0.75 fold
same,KD ratio 2,FcγRIIIa [4],1 fold
same,FcγR BINDING ACTIVITY (relative FcγRIIIa binding),FcγRIIIa [5],"100 relative, GpH7-A5/GpH7-B3/GpL16-k0 = 100"
same,FcγRIIIa BINDING ACTIVITY (relative),FcγRIIIa [6],"100 relative, GpH7-A5/GpH7-B3/GpL16-k0 = 100"
B6,KD ratio 1,FcγRIIIa [3],0.37 fold
same,KD ratio 2,FcγRIIIa [4],0.49 fold
same,FcγR BINDING ACTIVITY (relative FcγRIIIa binding),FcγRIIIa [5],"48 relative, GpH7-A5/GpH7-B3/GpL16-k0 = 100"
B7,KD ratio 1,FcγRIIIa [3],3.8 fold
same,KD ratio 2,FcγRIIIa [4],5.1 fold
same,FcγR BINDING ACTIVITY (relative FcγRIIIa binding),FcγRIIIa [5],"210 relative, GpH7-A5/GpH7-B3/GpL16-k0 = 100"
same,FcγRIIIa BINDING ACTIVITY (relative),FcγRIIIa [6],"210 relative, GpH7-A5/GpH7-B3/GpL16-k0 = 100"
B8,KD ratio,[2],7.1 fold (KD of GpH7-A5/GpH7-B3/GpL16-k0 divided by KD of the antibody)
B9,FcγRIIIa BINDING ACTIVITY (relative),FcγRIIIa [6],"11 relative, GpH7-A5/GpH7-B3/GpL16-k0 = 100"
B10,FcγR BINDING ACTIVITY (relative FcγRIIIa binding),FcγRIIIa [5],"225 relative, GpH7-A5/GpH7-B3/GpL16-k0 = 100"
B11,KD ratio,[2],3.4 fold (KD of GpH7-A5/GpH7-B3/GpL16-k0 divided by KD of the antibody)
B12,KD ratio,[2],4.4 fold (KD of GpH7-A5/GpH7-B3/GpL16-k0 divided by KD of the antibody)
B13,FcγRIIIa BINDING ACTIVITY (relative),FcγRIIIa [6],"150 relative, GpH7-A5/GpH7-B3/GpL16-k0 = 100"
B14,KD(IIaR)/KD(IIb),FcgRIIb [7],3
same,Relative KD (KD of IL6R-B3/IL6R-L divided by KD of the variant),FcgRIIb [8],7.2
same,Relative KD (KD of IL6R-B3/IL6R-L divided by KD of the variant),FcgRIIaR,0.9
